The target of assay [1] is DnaJ-6His (Salmonella enterica serovar Typhimurium) (UniProt P0A1G7). The experiment in a line: MST.
The target of assay [2] is T1, DnaJ C268A (Salmonella enterica serovar Typhimurium, UniProt P0A1G7 1-379, C268A).
T1 sequence (looked up): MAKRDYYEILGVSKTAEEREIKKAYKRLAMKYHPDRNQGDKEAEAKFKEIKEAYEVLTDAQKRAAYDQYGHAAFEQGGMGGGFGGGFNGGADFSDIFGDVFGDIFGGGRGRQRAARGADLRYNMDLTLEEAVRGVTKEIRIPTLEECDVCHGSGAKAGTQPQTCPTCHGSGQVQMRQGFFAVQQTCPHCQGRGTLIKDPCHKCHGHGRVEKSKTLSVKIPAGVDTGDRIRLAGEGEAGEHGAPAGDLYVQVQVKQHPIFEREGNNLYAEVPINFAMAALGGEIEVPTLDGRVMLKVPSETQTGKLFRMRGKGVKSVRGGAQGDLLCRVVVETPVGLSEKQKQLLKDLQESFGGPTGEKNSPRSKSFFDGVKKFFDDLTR
The experiment in a line: pull-down.

A word on the Kd: it is the equilibrium constant for the complex coming apart. Consider “oxidized DksA (recombinant, GST removed) (from UniProt P0A1G5 1-151) (natural protein)”, for which the Kd in assay [1] is 65 nM.

B1: GST-DksA (wild type, pull-down done in the absence of DTT) (natural protein, Salmonella enterica serovar Typhimurium, UniProt P0A1G5 1-151, looked up)
chain: MQEGQNRKTSSLSILAIAGVEPYQEKPGEEYMNEAQLSHFKRILEAWRNQLRDEVDRTVTHMQDEAANFPDPVDRAAQEEEFSLELRNRDRERKLIKKIEKTLKKVEDEDFGYCESCGVEIGIRRLEARPTADLCIDCKTLAEIREKQMAG
As to B1, the binding result in assay [2] was “binds”.

Source of the values: PMC6294903 (Proceedings of the National Academy of Sciences of the …, 2018).
